Three molecules from patent US12098186 (NATIONAL TECHNOLOGY AND ENGINEERING SOLUTIONS OF SANDIA, dated 2024) can be followed below.

Assay [1] deals with T1, SARS-CoV-2 receptor-binding domain (RBD) of the spike protein (SARS-CoV-2, UniProt P0DTC2 319-541). The assay can be described thus: cell-based or functional assay.
For assay [2], the target named is T1, SARS-CoV-2 receptor-binding domain ….
For assay [3] the target is unchanged. This is another data set of the same source.
For assay [4] the target is unchanged. The source holds these as a separate data set.
The target is the same in assay [5]. The source holds these as a separate data set.

Where two headings read alike, the source gives them in different places.

B1: SP1B4-U biparatopic nanobody construct (SP1B4 and U nanobodies on heterodimeric human IgG1 Fc) (bispecific antibody, V domains shown, not shown: a dimerising Fc or GST)
V domain 1: EVQLQASGGGFVQPGGSLRLSCAASGRAFGIYRMGWFRQAPGKEREFVSAISGGDAGHTRYADSVKGRFTISRDNSKNTVYLQMNSLRAEDTATYYCAYWDYNGVVPFFKYWGQGTQVTVSS
V domain 2: QVQLVESGGGLVQPGGSLRLSCAASGFTLDYYAIGWFRQAPGKEREGVSCISSSGGSTHFADSVKGRFTISRDNAKNTVYLQMNSLIPEDTAVYYCAAQSGSYYWCGSDWHEYEYWGQGTQVTVSS
Take B1: the “Neutralization EC50” value in assay [1] turned out to be 0.025 nM. Also, the Kd in assay [2] and in assay [3] was 2.2 nM throughout.

B2: SP3H4-U biparatopic nanobody construct (SP3H4 and U nanobodies on heterodimeric human IgG1 Fc) (bispecific antibody, V domains shown, not shown: a dimerising Fc or GST)
V domain 1: EVQLQASGGGFVQPGGSLRLSCAASGTAYGWSRMGWFRQAPGKEREFVSAISRASAGYAQYADSVKGRFTISRDNSKNTVYLQMNSLRAEDTATYYCAFPLHDQGEPYGWYWGQGTQVTVSS
V domain 2: QVQLVESGGGLVQPGGSLRLSCAASGFTLDYYAIGWFRQAPGKEREGVSCISSSGGSTHFADSVKGRFTISRDNAKNTVYLQMNSLIPEDTAVYYCAAQSGSYYWCGSDWHEYEYWGQGTQVTVSS
Consider B2, for which the “Neutralization EC50” value in assay [1] is 0.023 nM. The Kd in assay [4] and in assay [3] was 0.79 nM throughout.

B3: SP1D9-U biparatopic nanobody construct (SP1D9 and U nanobodies on heterodimeric human IgG1 Fc) (bispecific antibody, V domains shown, not shown: a dimerising Fc or GST)
V domain 1: EVQLQASGGGFVQPGGSLRLSCAASGRYDSYVRMGWFRQAPGKEREFVSAISGGGDKSTWYADSVKGRFTISRDNSKNTVYLQMNSLRAEDTATYYCANAQLGPAYDKIGYWGQGTQVTVSS
V domain 2: QVQLVESGGGLVQPGGSLRLSCAASGFTLDYYAIGWFRQAPGKEREGVSCISSSGGSTHFADSVKGRFTISRDNAKNTVYLQMNSLIPEDTAVYYCAAQSGSYYWCGSDWHEYEYWGQGTQVTVSS
As to B3, binding in assay [5] was characterised by a dissociation constant (Kd) of 2 nM. That is a single-digit nanomolar value.
